Article PMC3078593, “Multifunctional transcription factor TFII-I is an activator of BRCA1 function” (British Journal of Cancer, 2011)

Molecular target: GST-BRCT
Test: cell-based or functional assay

luciferase activity of 17M8-AdMLP-luc driven by GAL4-BRCT (GAL-BRCT) in COS7 cells, with TFII-I expressed: ≤ 2 fold
B1: GST-tagged TFII-I (wild type) (natural protein, UniProt P78347-2 1-957, looked up)
chain: MAQVAMSTLPVEDEESSESRMVVTFLMSALESMCKELAKSKAEVACIAVYETDVFVVGTERGRAFVNTRKDFQKDFVKYCVEEEEKAAEMHKMKSTTQANRMSVDAVEIETLRKTVEDYFCFCYGKALGKSTVVPVPYEKMLRDQSAVVVQGLPEGVAFKHPENYDLATLKWILENKAGISFIIKRPFLEPKKHVGGRVMVTDADRSILSPGGSCGPIKVKTEPTEDSGISLEMAAVTVKEESEDPDYYQYNIQGSHHSSEGNEGTEMEVPAEDDDYSPPSKRPKANELPQPPVPEPANAGKRKVREFNFEKWNARITDLRKQVEELFERKYAQAIKAKGPVTIPYPLFQSHVEDLYVEGLPEGIPFRRPSTYGIPRLERILLAKERIRFVIKKHELLNSTREDLQLDKPASGVKEEWYARITKLRKMVDQLFCKKFAEALGSTEAKAVPYQKFEAHPNDLYVEGLPENIPFRSPSWYGIPRLEKIIQVGNRIKFVIKRPELLTHSTTEVTQPRTNTPVKEDWNVRITKLRKQVEEIFNLKFAQALGLTEAVKVPYPVFESNPEFLYVEGLPEGIPFRSPTWFGIPRLERIVRGSNKIKFVVKKPELVISYLPPGMASKINTKALQSPKRPRSPGSNSKVPEIEVTVEGPNNNNPQTSAVRTPTQTNGSNVPFKPRGREFSFEAWNAKITDLKQKVENLFNEKCGEALGLKQAVKVPFALFESFPEDFYVEGLPEGVPFRRPSTFGIPRLEKILRNKAKIKFIIKKPEMFETAIKESTSSKSPPRKINSSPNVNTTASGVEDLNIIQVTIPDDDNERLSKVEKARQLREQVNDLFSRKFGEAIGMGFPVKVPYRKITINPGCVVVDGMPPGVSFKAPSYLEISSMRRILDSAEFIKFTVIRPFPGLVINNQLVDQSESEGPVIQESAEPSQLEVPATEEIKETDGSSQIKQEPDPTW
